Measured values: US20140271640A1, “FGF-10 Complexes” (Permeon Biologics, Inc., priority 2012, published 2014)
Residue numbers refer to the chain shown, from its start. Names may count otherwise.

Key:
FGFR-1b = FGFR-1b (Homo sapiens, UniProt P11362); settings: cited from earlier work
[1] = system: HepG2 (hepatoma), Hela cells, SW626 cells (ovarian); experiment: Cell penetration of p16 fusion proteins, flow cytometry; format: cell-based; settings: 2 uM, overnight
Method: On the day prior to the assay, HepG2 (hepatoma), Hela cells, and 10^6 SW626 cells (ovarian) were plated in each well of a 6-well plate and incubated in the 37° C. CO2 incubator. The cells were washed once with PBS and then were replenished with 2 mL of growth media containing 2 uM of p16, +36GFP-p16 or FGF10-p16 proteins and were incubated overnight in the 37° C. CO2 incubator. The cells were then washed once with PBS and detached with 0.25% trypsin/EDTA. The cells were fixed for 10 minutes with 1 mL 4% formaldehyde and permeabilized for 5 minutes with 0.5 mL 0.4% saponin. Then 2.5 uL of 1 mg/mL FITC labeled chicken polyclonal anti-myc tag antibody (Abcam #1394) was added to all the cells and incubated at 4° C. in the dark for 2 hours, except for cells treated with +36GFP-p16 (GFP itself was used for detection). The cells were washed twice with ice cold PBS and were analyzed using a BD Accuri™ C6 flow cytometer.

[2] = system: SKOV-3 ovarian cancer cells; experiment: SKOV-3 cell viability MTS assay with endosome escape agent; format: cell-based, human; settings: 1 uM protein, 4 hours, with endosome escape agent (strongest at 13.3 nM)
Method: SKOV-3 ovarian cancer cells were plated in a 96-well format and grown overnight. Cells were incubated with test articles: a) 1 uM of p16, b) 1 uM of +36GFP-p16, c) 1 uM of FGF10-p16 or d) no treatment in the presence of various concentrations of an endosome escape agent such as PFO (five 3× dilution starting from 40 nM; exemplary endosomal escape agents, such as PFO or PFO-like agents, are disclosed in WO2012/094653) for 4 hours in serum-free medium. One group of cells, called “untreated cells” received no test article treatment and no PFO treatment. After incubation, the media from all cell wells was aspirated and fresh complete medium was added for 3 hours. Cell viability was assessed using an MTS assay. Results are reported as number of viable cells as % relative to the untreated cells.
The CDK4/6 inhibitor PD-0332991 was used as positive control for inhibition of cell proliferation in the p16 deficient SKOV-3 cell line (FIG. 22).

FGFR2b receptor = FGFR2b receptor (Homo sapiens, UniProt P21802); settings: relative to wild-type FGF10; cited from earlier work
[3] = Stability of Hisx6-FGF10-Myc following freeze/thaw cycles (A280, analytical SEC); format: physicochemical; settings: after two (multiple) freeze/thaw cycles
Method: The stability of this cell penetrating domain of FGF10 was evaluated following multiple freeze/thaw cycles. To do this, protein concentration measurements and analytical size exclusion chromatography were carried out comparing protein which had undergone zero, one, or two freeze/thaw cycles. […] The study indicated about 75% stability of this protein after two freeze/thaw cycles.
Purified protein was subjected to the indicated number of freeze/thaw cycles (each freeze/thaw cycle consisted of snap-freezing the protein in liquid nitrogen, placing it at −80° C. for a minimum of two hours, and then thawing it on ice) and analyzed by size exclusion chromatography. After each thaw, the protein was subjected to 20,000×g centrifugation to remove any precipitation. The protein concentration of each sample was measured by A280, considering the extinction coefficient (24540) and molecular weight (19.57 kDa). In each case 40 μL of the protein was applied to a Superdex 75 10/300 GL column (GE Healthcare). The column running buffer was the same as the protein storage buffer (20 mM Hepes, pH 7.5, 0.5 M NaCl).

[4] = Microautoradiography analysis (MARG) of cellular distribution in liver and kidney; format: in vivo, mice
Method: To obtain specific cell-type uptake information in select organs, microautoradiography analysis was performed on selected organs collected at various time points. For microautoradiography analysis (MARG), animals were anesthetized and blood collected, as described above. Tissue samples are trimmed to be approximately 0.5 cm^2, placed into cryosectioning embedding media on a cryosectioning sample holder, and frozen in isopentane that is cooled with liquid nitrogen. Frozen samples were stored in liquid nitrogen until analysis by MARG. For analysis, tissues were cryosectioned at 5 μm under darkroom conditions, and collected onto glass slides that are pre-coated with photographic emulsion (Kodak NTB photographic emulsion). Slides were placed in sealed light-safe slide boxes and allowed to expose the photographic emulsion for 7 days before being developed, fixed and stained with hematoxylin and eosin. All slides were examined for cellular localization using light microscopy.

[5] = mouse, in vivo, iv
Hela cells = experiment: Cell penetrating activity of FGF10 domain, anti-myc flow cytometry; format: cell-based; settings: 1 uM, 20 minutes
Method: On the day prior to the assay, 10^6 Hela cells were plated in each well of a 6-well plate and incubated in the 37° C. CO2 incubator overnight. The cells were washed once with PBS and then were replenished with 1 mL of serum-free DEMEM (A) or media containing 1 uM of the FGF10 domain construct FGF10-myc (B, C, and D) and were incubated for 20 minutes in the 37° C. CO2 incubator. The cells were then washed three times with ice-cold PBS. For (C) and (D), cells were treated with 0.25% trypsin/EDTA and washed three times with PBS. The cells in (D) were fixed for 10 minutes with 1 mL 4% formaldehyde and permealized for 5 minutes with 0.2% saponin. Then 10 uL of 0.1 mg/mL FITC labeled chicken polyclonal anti-myc tag antibody (Abcam #1394) was added to all the cells and incubated at 4° C. in the dark for 2 hours. The cells were washed three times with ice cold PBS. Cells in (A) and (B) were detached with 1 mL 10 mM EDTA. Cells were analyzed using a BD Accuri™ C6 flow cytometer.

[6] = mouse, in vivo

Sequence of FGFR2b receptor (P21802 22-822 isoform P21802-3 limits assumed): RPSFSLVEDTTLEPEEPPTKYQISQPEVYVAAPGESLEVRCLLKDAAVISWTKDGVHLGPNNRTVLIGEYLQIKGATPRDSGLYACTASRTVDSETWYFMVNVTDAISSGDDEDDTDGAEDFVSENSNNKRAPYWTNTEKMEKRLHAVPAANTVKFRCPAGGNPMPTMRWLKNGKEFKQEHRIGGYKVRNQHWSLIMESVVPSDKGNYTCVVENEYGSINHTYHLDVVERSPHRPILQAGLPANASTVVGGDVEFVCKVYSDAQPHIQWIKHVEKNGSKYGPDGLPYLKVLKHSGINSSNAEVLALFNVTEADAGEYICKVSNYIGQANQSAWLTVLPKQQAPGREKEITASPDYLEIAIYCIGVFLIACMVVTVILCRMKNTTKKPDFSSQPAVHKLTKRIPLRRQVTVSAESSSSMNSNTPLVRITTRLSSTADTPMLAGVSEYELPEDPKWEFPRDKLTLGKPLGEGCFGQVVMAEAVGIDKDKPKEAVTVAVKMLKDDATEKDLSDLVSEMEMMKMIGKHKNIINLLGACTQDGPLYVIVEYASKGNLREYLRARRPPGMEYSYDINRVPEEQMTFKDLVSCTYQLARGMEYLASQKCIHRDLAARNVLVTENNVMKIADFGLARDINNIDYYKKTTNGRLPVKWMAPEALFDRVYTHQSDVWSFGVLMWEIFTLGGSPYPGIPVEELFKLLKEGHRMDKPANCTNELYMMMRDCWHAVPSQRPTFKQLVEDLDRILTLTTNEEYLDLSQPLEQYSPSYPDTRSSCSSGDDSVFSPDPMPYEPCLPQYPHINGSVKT
Sequence of FGFR-1b (P11362 22-822 isoform P11362-19 limits assumed): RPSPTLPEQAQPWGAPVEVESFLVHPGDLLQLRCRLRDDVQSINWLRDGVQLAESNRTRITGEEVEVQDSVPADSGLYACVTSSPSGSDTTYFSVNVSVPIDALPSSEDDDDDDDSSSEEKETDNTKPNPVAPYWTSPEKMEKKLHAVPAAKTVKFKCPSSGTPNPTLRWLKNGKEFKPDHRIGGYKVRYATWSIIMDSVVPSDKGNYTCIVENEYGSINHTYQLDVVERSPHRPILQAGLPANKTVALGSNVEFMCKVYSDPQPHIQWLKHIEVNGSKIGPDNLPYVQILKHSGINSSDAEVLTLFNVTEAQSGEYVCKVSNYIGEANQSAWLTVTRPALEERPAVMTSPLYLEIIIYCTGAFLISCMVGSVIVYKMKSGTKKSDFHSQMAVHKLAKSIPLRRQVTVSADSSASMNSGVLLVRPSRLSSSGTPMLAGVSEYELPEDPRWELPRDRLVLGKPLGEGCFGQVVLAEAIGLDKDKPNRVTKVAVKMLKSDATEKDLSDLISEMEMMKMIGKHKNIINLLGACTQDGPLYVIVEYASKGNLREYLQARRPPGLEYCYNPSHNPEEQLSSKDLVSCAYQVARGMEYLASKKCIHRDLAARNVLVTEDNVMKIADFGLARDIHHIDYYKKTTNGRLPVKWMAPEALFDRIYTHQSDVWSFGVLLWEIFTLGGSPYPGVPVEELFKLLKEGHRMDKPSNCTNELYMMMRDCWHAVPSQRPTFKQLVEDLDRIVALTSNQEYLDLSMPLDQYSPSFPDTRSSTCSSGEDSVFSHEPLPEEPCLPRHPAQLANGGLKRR

B1: Fibroblast growth factor 10 (FGF-10): native FGF family member, ligand of FGFR-2b (protein, UniProt O15520 38-208, looked up)
Fibroblast growth factor 10: QALGQDMVSPEATNSSSSSFSSPSSAGRHVRSYNHLQGDVRWRKLFSFTKYFLKIEKNGKVSGTKKENCPYSILEITSVEIGVVAVKAINSNYYLAMNKKGKLYGSKEFNNDCKLKERIEENGYNTYASFNWQHNGRQMYVALNGKGAPRRGQKTRRKNTSAHFLPMVVHS
**Q.** With B1 as the molecule, how does the “binding affinity to FGFR-1b as % of binding affinity to FGFR-2b” value (FGFR-1b) read?
**A.** The value was “about 10%”.

B2: FGF10-p16: fusion protein of FGF10 domain (SEQ ID NO: 2), (G4S)2 linker and human p16 (protein)
chain: MEQKLISEEDLGSGRHVRSYNHLQGDVRWRKLFSFTKYFLKIEKNGKVSGTKKENCPYSILEITSVEIGVVAVKAINSNYYLAMNKKGKLYGSKEFNNDCKLKERIEENGYNTYASFNWQHNGRQMYVALNGKGAPRRGQKTRRKNTSAHFLPMVVHSGHGGGGSGGGGSMEPAAGSSMEPSADWLATAAARGRVEEVRALLEAGALPNAPNSYGRRPIQVMMMGSARVAELLLLHGAEPNCADPATLTRPVHDAAREGFLDTLVVLHRAGARLDVRDAWGRLPVDLAEELGHRDVARYLRAAAGGTRGSNHARIDAAEGPSDIPDGHGHHHHHH
**Q.** Which results are given for B2?
**A.** treated cells stained positive ([1]; trypsin detached): ~30%; number of viable cells / cell proliferation [2]: significant reduction in the number of viable cells

B3: p16: human p16Ink4A tumor suppressor protein without penetrating polypeptide (protein, listed as Homo sapiens)
chain: MEPAAGSSMEPSADWLATAAARGRVEEVRALLEAGALPNAPNSYGRRPIQVMMMGSARVAELLLLHGAEPNCADPATLTRPVHDAAREGFLDTLVVLHRAGARLDVRDAWGRLPVDLAEELGHRDVARYLRAAAGGTRGSNHARIDAAEGPSDIPD
**Q.** With B3 as the molecule, how does the cell penetration [1] read?
**A.** The cell penetration was “does not”.

**Q.** What about the “number of viable cells / cell proliferation” value [2] of the same molecule?
**A.** Its value is “failed to block cell proliferation at levels higher than the background toxicity of an endosomal escape agent”.

B4: FGF10 E158K/K195A: FGF-10 variant or fragment having two substitutions E158K/K195A (protein)
chain: GRHVRSYNHLQGDVRWRKLFSFTKYFLKIEKNGKVSGTKKENCPYSILEITSVEIGVVAVKAINSNYYLAMNKKGKLYGSKEFNNDCKLKERIEKNGYNTYASFNWQHNGRQMYVALNGKGAPRRGQKTRRANTSAHFLPMVVHS
**Q.** Which “decrease in binding to the FGFR2b receptor (factor / fold)” value (FGFR2b receptor) does the source give for B4 here?
**A.** Its value is “approximately 4”.

B5: FGF10 R78A: FGF-10 variant or fragment having one substitution R78A (protein)
chain: B4 chain with R15A, K95E, A132K
**Q.** Which “decrease in binding to the FGFR2b receptor (factor / fold)” value (FGFR2b receptor) does the source give for B5 here?
**A.** The value was “approximately 4”.

B6: FGF10: Hisx6- and Myc-tagged domain of human FGF10 with the amino acid sequence of SEQ ID NO: 2 (protein, listed as Homo sapiens)
chain: B4 chain with K95E, A132K
modifications: His6 and Myc tags
**Q.** For B6, which “stability after freeze/thaw cycles” value ([3]; listed as His6-FGF10-myc) is on record?
**A.** Its value is 75%.

**Q.** What about the “stability after freeze/thaw cycles” value ([3]; listed as Hisx6-FGF10-Myc) of the same molecule?
**A.** The value was “about 75%”.

**Q.** And the “cellular distribution in kidney (MARG)” value ([4]; kidney)?
**A.** The value was “uniformly distributed throughout the kidney”.

**Q.** And the “cellular distribution in liver (MARG)” value ([4]; liver)?
**A.** Its value is “uniformly distributed throughout the liver tissue including in hepatocytes”.

**Q.** What about the “travel beyond the injection site” value [5] of the same molecule?
**A.** Its value is “able to travel significantly beyond the area of the injection site”.

**Q.** And the “cells with protein present on the cell membrane” value (Hela cells; no trypsin)?
**A.** The value was 98.8%.

**Q.** And the “cells stained positive after trypsin treatment (internalized protein)” value (Hela cells; trypsin, fixed and permeabilized)?
**A.** The value was “almost all the cells stained positive”.

**Q.** And the “partitioning between plasma compartment and blood cell compartment” value [6]?
**A.** The value was “favor the plasma compartment over the blood cell compartment”.

**Q.** What about the “plasma concentration compared with Tat-TK or +36GFP” value [6] of the same molecule?
**A.** Its value is “higher concentrations in plasma 1 hour post-injection than Tat-TK or +36GFP”.
